Assay results reported in patent publication US20080242590A1, “New Method 706” (ASTRAZENECA AB, priority 2007, published 2008).

Key:
amyloid β 1-40 peptide = experiment: Degradation of amyloid β 1-40 peptide by Fc-Neprilysin and Neprilysin in buffer; format: biochemical; conditions: 2.4 μg/ml, Aβ 1-40 300 nM, 2.5 hours at 37° C., buffer
Protocol: The assay is measuring the remaining amyloid β 1-40 peptide (Bachem) concentration following its incubation in the presence of Neprilysin (R&D Systems) or Fc-Neprilysin with or without Neprilysin inhibitor. 100 μl of reaction mixture containing amyloid β 1-40 peptide (final concentrations, 300, 30 or 3 nM) and/or Neprilysin (2.4 μg/ml), and/or Fc-Neprilysin construct (2.4 μg/ml), and/or Phosphoramidone (10 μM) was incubated in a round bottom 96-well polypropylene plate at 37° C. for 2.5 hours. Following incubation, 10 μl of reaction mixture was transferred into Thermo-Fast© 96-well PCR plate (Abgene, UK) containing 10 μl of Standard Diluent (Gyros AB). Amyloid β 1-40 concentration was determined using Gyrolab Workstation LIF system. Biotinylated anti-amyloid β antibodies (6E10; final concentration 50 μg/ml; Signet) were used as capturing antibodies and polyclonal anti-human amyloid β antibodies (44-348; Biosource) labeled with Alexa Fluor 647 dye (Molecular probes) were used as detection antibodies. Amyloid β 1-40 peptide concentration measurement performed according to the manufacturers protocol using Gyrolab Bioaffy™ Software Package Version 1.8 (Gyros AB). Amyloid β 1-40 peptide degradation by Neprilysin was calculated as a percentage of Amyloid β 1-40 peptide left after incubation in the presence of Neprilysin compared to the amyloid β 1-40 peptide concentration in the absence of Neprilysin.

[1] = Pharmacokinetics of Fc-Nep and commercial neprilysin, single i.v. dose (Example 20); format: in vivo; conditions: mice, single i.v. dose 1 alternatively 5 mg/kg
Protocol: (§1) The Fc-Nep fusion protein was developed to improve the pharmacokinetic entities of neprilysin with the specific aims to reduce clearance and improve half-life. To test this we have administrated a single i.v. dose of either 1 mg/kg commercial neprilysin or 1 alternatively 5 mg/kg in-house produced Fc-Nep to mice. At set times after dosing blood samples were drawn from the tail vein or by heart puncture at termination. Upon sampling into tubes containing EDTA the aliquots were put on ice. Plasma was prepared by centrifugation within 15 minutes of sampling (typically 1500 g at 4° C. for 10 min) and immediately frozen. Plasma concentrations of Fc-Nep and neprilysin were determined via immunoassays using either anti-Nep for commercial neprilysin or anti-human IgG for Fc-Nep as capture antibodies while both substances were detected via an anti-Nep antibody. Pharmacokinetic parameters are calculated using a software package (WinNonlin, Pharsight Corporation, USA) and in this example experiment the calculated half-life had increased from about 5 minutes for Nep to about 20 hours for Fc-Nep.

soluble Aβ40 = experiment: Soluble Aβ40 in plasma after acute i.v. treatment (Example 23); format: in vivo, APPSWE-transgenic mice
Protocol: (§2) The objective with this study was to evaluate the time and dose-response effect of Fc-Nep in plasma of female APPSWE-tg mice after acute intraveneous treatment. The specific purpose is to find an effect on plasma Aβ40 and Aβ42. The γ-secretase inhibitor M-550426 is included as a reference compound.
(§3) 25-31 weeks old female APPSWE-transgenic mice (10 mice/group) received vehicle or the Fc-Nep at 1 or 5 mg/kg as a single intravenous injections. As a reference compound, 300 μmol/kg of the γ-secretase inhibitor M-550426 was used and these animals was treated in 3 hours (4 mice). […] Blood was sampled from vehicle- and compound-treated animals at 1.5 and 3 hours after dose. Blood was withdrawn from anaesthetized mice by heart puncture into pre-chilled microtainer tubes containing EDTA. Blood samples were immediately put on ice prior to centrifugation. Plasma was prepared by centrifugation for 10 minutes at approximately 3000×g at +4° C. within 20 minutes from sampling. After blood sampling, mice were terminated. Aβ40 and Aβ42 levels in plasma were analyzed by commercial ELISA kit obtained from Biosource and Innogenetics, respectively.

soluble Aβ42 = experiment: Soluble Aβ42 in plasma after acute i.v. treatment (Example 23); format: in vivo, APPSWE-transgenic mice
Protocol: as §2, §3

[2] = Plasma exposure (Example 23); format: in vivo, APPSWE-transgenic mice; conditions: for Mean plasma exposure: 1.5 hours; for Plasma exposure: 3 hours
Protocol: as §1, §3
The concentrations of Fc-Nep in plasma and in the formulations were assayed according to the procedures described in Example 20. The exposure in plasma was analysed in samples from non-treated animals (blank) and in samples from animals treated with M550426.

[3] = Observations of animal health (Example 25); format: in vivo, C57BL/6 mice; conditions: 5 mg/kg single i.v., up to 168 hours
Protocol: 20-21 weeks old female C57BL/6 mice (8 mice/group) received vehicle or hFc-Nep at 5 mg/kg as a single intravenous injection and Aβ40 was analysed at different time points after injection (between 1.5-168 hours, i.e., up to 1 week). The γ-secretase inhibitor M-550426 was given per orally and the animals were treated for 3 hours. A blank group was also included in the study. […] Blood collection, plasma processing and measurement of mouse Aβ40 levels in plasma were basically as described in Example 27.

[4] = Pharmacokinetics of Fc-Nep and in-house produced Neprilysin, single i.v. dose (Example 27); format: in vivo; conditions: mice, single i.v. dose 10 or 50 nmol enzyme/kg (1 and 5 mg/kg)
Protocol: The Fc-Nep fusion protein was developed to improve the pharmacokinetic entities of neprilysin with the specific aims to reduce clearance and improve half-life. To test this we have administrated a single i.v. dose of 10 or 50 nmol enzyme/kg body weight neprilysin (Nep) or Fc-Nep (1 and 5 mg/kg) to mice. At set times the dose blood samples were drawn from the tail vein or by heart puncture at termination. Upon sampling into tubes containing EDTA the aliquots were put on ice. Plasma was prepared by centrifugation within 15 minutes of sampling (typically 1500 g at 4° C. for 10 min) and immediately frozen. Plasma concentrations of Nep and Fc-Nep were determined via immunoassays using either anti-Nep for Nep or anti-human IgG for Fc-Nep as capture antibodies while both substances were detected via an anti-Nep antibody. Pharmacokinetic parameters are calculated using a software package (WinNonlin, Pharsight Corporation, USA) and in this example experiment the calculated half-life had increased from about 1 day for Nep to about 2.5 weeks for Fc-Nep.

B1: Fc-Neprilysin: extracellular domain of human Neprilysin fused to the human IgG2 Fc domain (including hinge), Fc at N-terminus; SEQ ID NO 11 (protein)
chain: ERKCCVECPPCPAPPVAGPSVFLFPPKPKDTLMISRTPEVTCVVVDVSHEDPEVQFNWYVDGVEVHNAKTKPREEQFNSTFRVVSVLTVVHQDWLNGKEYKCKVSNKGLPAPIEKTISKTKGQPREPQVYTLPPSREEMTKNQVSLTCLVKGFYPSDIAVEWESNGQPENNYKTTPPMLDSDGSFFLYSKLTVDKSRWQQGNVFSCSVMHEALHNHYTQKSLSLSPGKYDDGICKSSDCIKSAARLIQNMDATTEPCTDFFKYACGGWLKRNVIPETSSRYGNFDILRDELEVVLKDVLQEPKTEDIVAVQKAKALYRSCINESAIDSRGGEPLLKLLPDIYGWPVATENWEQKYGASWTAEKAIAQLNSKYGKKVLINLFVGTDDKNSVNHVIHIDQPRLGLPSRDYYECTGIYKEACTAYVDFMISVARLIRQEERLPIDENQLALEMNKVMELEKEIANATAKPEDRNDPMLLYNKMTLAQIQNNFSLEINGKPFSWLNFTNEIMSTVNISITNEEDVVVYAPEYLTKLKPILTKYSARDLQNLMSWRFIMDLVSSLSRTYKESRNAFRKALYGTTSETATWRRCANYVNGNMENAVGRLYVEAAFAGESKHVVEDLIAQIREVFIQTLDDLTWMDAETKKRAEEKALAIKERIGYPDDIVSNDNKLNNEYLELNYKEDEYFENIIQNLKFSQSKQLKKLREKVDKDEWISGAAVVNAFYSSGRNQIVFPAGILQPPFFSAQQSNSLNYGGIGMVIGHEITHGFDDNGRNFNKDGDLVDWWTQQSASNFKEQSQCMVYQYGNFSWDLAGGQHLNGINTLGENIADNGGLGQAYRAYQNYIKKNGEEKLLPGLDLNHKQLFFLNFAQVWCGTYRPEYAVNSIKTDVHSPGNFRIIGTLQNSAEFSEAFHCRKNSYMNPEKKCRVW
Amyloid β 1-40 peptide degraded (amyloid β 1-40 peptide; batch 1): 50%
Amyloid β 1-40 peptide degraded (amyloid β 1-40 peptide; batch 2): 42%
calculated half-life [1]: about 20 hours
Change in plasma Aβ40 (soluble Aβ40; 1 and 5 mg/kg i.v., 3 hours after dose): No significant changes
Reduction of soluble Aβ40 in plasma compared to vehicle (soluble Aβ40; 1 or 5 mg/kg i.v., 1.5 hours after dose, P<0.05): approximately 20%
Change in plasma Aβ42 (soluble Aβ42; 1 mg/kg i.v., 1.5 hours): No significant change
Reduction of Aβ42 in plasma compared to vehicle (soluble Aβ42; 5 mg/kg i.v., 1.5 hours, P<0.05): approximately 20%
Change in plasma Aβ42 (soluble Aβ42; any of the doses (1 and 5 mg/kg), 3 hours): No significant changes
Mean plasma exposure ([2]; 1 mg/kg i.v.): 9.8 µg/mL
Plasma exposure ([2]; 1 mg/kg i.v.): 7.6 µg/mL
Mean plasma exposure ([2]; 5 mg/kg i.v.): 33.6 µg/mL
Plasma exposure ([2]; 5 mg/kg i.v.): 27.3 µg/mL
Observations of the animal health [3]: no overt adverse effects
calculated half-life [4]: about 2.5 weeks
